US20250388697A1 (UNIVERSITY OF MASSACHUSETTS, published 2025)

Molecular target: T1, endogenous murine SOD1 WT (in non-transgenic mouse spinal cord lysate) (mouse, UniProt P08228 2-154)
T1 construct: Tested only as a component of clarified spinal cord lysate; also called marine SOD1 WT (as printed once)
Assay: competitive ELISA: Nb54 (0.2 µg/ml) on immobilized SOD1 G93A with Non-Tg mouse spinal cord lysate as competitor
Protocol: A competitive ELISA was used to assess a potential interaction between nanobody and SOD1 derived from an ALS mouse model as follows. […] All research involving animals for the following post-mortem tissue processing was reviewed and approved by the Institutional Animal Care and Use Committee (IACUC) at the University of Massachusetts Chan Medical School.
Serial dilutions were prepared in 25 μl of assay buffer (0.2% (w/v) BSA in PBS). […] A statistical analysis was performed as described below and in the figure legend.

T1 sequence (P08228 2-154 limits assumed): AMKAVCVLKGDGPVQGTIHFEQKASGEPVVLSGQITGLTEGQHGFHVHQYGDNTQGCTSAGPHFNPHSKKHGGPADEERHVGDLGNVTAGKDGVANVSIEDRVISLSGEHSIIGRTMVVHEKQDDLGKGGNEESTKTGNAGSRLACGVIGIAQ

binding result: no binding
B1: Nb54 with a non-cleavable his-tag (used in the competitive ELISA) (VHH)
VHH: QVQLVESGGGWVQAGGSLRLSCVVSGTNFNDRSMGWYRQAPGKERELVATLSYGGRRNYVDAVKARFTMSRDNRKNTTYLLMNDLEPDDTAVYYCAAGHVLESVVPATTWIEYWGQGTQVTVSS
notes: not shown: non-cleavable his-tag
